In paper PMC7736253 (Nature plants, 2020):

Legend:
[1] = target: Rubisco holoenzyme (native Rubisco purified from Chlamydomonas cells) (Chlamydomonas reinhardtii (endogenous in strain cMJ030)) (UniProt P00877); assay: cryo-EM structure
[2] = target: Rubisco holoenzyme (native Rubisco purified from Chlamydomonas cells) (Chlamydomonas reinhardtii (endogenous in strain cMJ030)) (UniProt P00877); assay: SPR
cryo-EM structure = target: the molecule itself; assay: cryo-EM structure

Molecule	stoichiometry N [1]	Kd [2] [µM]	stoichiometry N (cryo-EM structure)
EPYC1_(106-135) peptide	< 8		
EPYC1_(49-72) peptide	< 8	3000	
Rubisco large subunit (in the native holoenzyme) (natural protein, UniProt P00877 3-475, looked up) PQTETKAGAGFKAGVKDYRLTYYTPDYVVRDTDILAAFRMTPQLGVPPEECGAAVAAESSTGTWTTVWTDGLTSLDRYKGRCYDIEPVPGEDNQYIAYVAYPIDLFEEGSVTNMFTSIVGNVFGFKALRALRLEDLRIPPAYVKTFVGPPHGIQVERDKLNKYGRGLLGCTIKPKLGLSAKNYGRAVYECLRGGLDFTKDDENVNSQPFMRWRDRFLFVAEAIYKAQAETGEVKGHYLNATAGTCEEMMKRAVCAKELGVPIIMHDYLTGGFTANTSLAIYCRDNGLLLHIHRAMHAVIDRQRNHGIHFRVLAKALRMSGGDHLHSGTVVGKLEGEREVTLGFVDLMRDDYVEKDRSRGIYFTQDWCSMPGVMPVASGGIHVWHMPALVEIFGDDACLQFGGGTLGHPWGNAPGAAANRVALEACTQARNEGRDLAREGGDVIRSACKWSPELAAACEVWKEIKFEFDTIDKL			8
